The text below walks through data of patent US20040175824A1.

Several values for one entry are separate records, joined by “and”; a condition that tells them apart may be missing. Equal values may be shown once.

The target in this assay is human EPO receptor (EPO-Rc) (human) (UniProt P19235). As to the kind of experiment: cell-based or functional assay.
UniProt P19235, sequence (P19235 25-508): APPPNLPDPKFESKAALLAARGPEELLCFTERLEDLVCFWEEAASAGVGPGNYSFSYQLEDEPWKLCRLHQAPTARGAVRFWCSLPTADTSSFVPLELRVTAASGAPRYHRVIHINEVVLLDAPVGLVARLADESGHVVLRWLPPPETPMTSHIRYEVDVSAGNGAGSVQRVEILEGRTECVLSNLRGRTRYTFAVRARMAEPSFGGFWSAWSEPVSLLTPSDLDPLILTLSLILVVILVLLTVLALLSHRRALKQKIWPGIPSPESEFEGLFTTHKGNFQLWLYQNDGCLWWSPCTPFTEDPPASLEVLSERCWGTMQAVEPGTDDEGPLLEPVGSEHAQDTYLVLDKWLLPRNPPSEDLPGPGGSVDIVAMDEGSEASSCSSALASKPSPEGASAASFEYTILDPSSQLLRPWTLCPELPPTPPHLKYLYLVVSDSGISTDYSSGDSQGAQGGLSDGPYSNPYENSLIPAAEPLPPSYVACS

“Recombinant human EPO (rHuEPO) (from UniProt P01588 28-192) (ligand)”: the proliferation of the 32D1.9 cells (MTT, OD 550 nm); in vitro biological activity on a molar basis is 3e+06 units/µmole and 4e+06 units/µmole.
